Assays:
Assay in all cases: cell-based or functional assay
[1] = biological target: Corynebacterium glutamicum SSB (Corynebacterium glutamicum)
[2] = biological target: Lactobacillus reuteri SSB (Lactobacillus reuteri)
[3] = biological target: E. coli single-strand DNA-binding protein (SSB) (Escherichia coli) (UniProt P0AGE0)
Sequence of UniProt P0AGE0 (P0AGE0 2-178 limits assumed): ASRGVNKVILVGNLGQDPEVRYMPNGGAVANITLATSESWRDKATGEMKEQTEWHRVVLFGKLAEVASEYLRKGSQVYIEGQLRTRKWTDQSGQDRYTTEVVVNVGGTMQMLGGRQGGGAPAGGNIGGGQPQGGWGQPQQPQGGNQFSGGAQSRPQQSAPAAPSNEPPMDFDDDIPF

Row | Substance | Allele Recombination (AR) Frequency in E. coli, bi-cistronic co-expression [1] | increase of AR frequency over the SSAP alone [1] [fold] | Allele Recombination (AR) Frequency in E. coli, bi-cistronic co-expression [2] | Allele Recombination (AR) Frequency in E. coli, bi-cistronic co-expression [3] | increase of recombination frequency over the SSAP alone [2] [fold]
1 | Corynebacterium glutamicum recT | 0.245 | 10 | 0.044 |  | 
2 | λ β expressed from pARC8 in E. coli (no tag stated) (from UniProt P03698 1-261) |  |  |  | 0.09 | 
3 | Lactobacillus reuteri recT1 | 0.000496 |  | 0.003 |  | 10

— patent US20210332350A1
